How the values were obtained:
[1] = tested on: joint cartilage of osteoarthritis-induced right knee; experiment: Visual observation of the changes of joint cartilage, osteoarthritis-induced rabbits; type: in vivo, NewZealand White Rabbits; conditions: autopsy at 12 weeks
From the text: (§1) It is known that not only repetitive joint damage but also a lesion similar to that of human degenerative osteoarthritis is induced in a rabbit model with knee meniscus removed. A method for tearing the cranial cruciate ligament is used as a method for inducing osteoarthritis in rabbits (Hulth A. et al., Acta Orthp Scand. 41:522-530, 1970). In the present experiment, the cranial cruciate ligament of a rabbit was torn to induce the instability of joints and simultaneously medial meniscus was removed to induce osteoarthritis.
(§2) The cranial cruciate ligaments of right knees of all the experimental animals were torn to induce the instability of joints and medial meniscuses were simultaneously removed to induce osteoarthritis. […]
(§3) In order to induce osteoarthritis effectively, all the animals in the experimental group were subjected to a forced exercise task using a treadmill for 5 min every day from the day 4 after the induction surgery of osteoarthritis, and arthrography was performed on both knee joints at 4 weeks, 8 weeks, and 12 weeks after administration of the test material to measure the changes of joint surface. An autopsy was performed at 12 weeks after administration of the test material to conduct serologic tests of blood samples through collection of blood and control effects of the test material on osteoarthritis were assessed through a histopathological test. […]

[2] = tested on: TNF-α; experiment: Measurement of TNF-α in serum by ELISA, osteoarthritis-induced rabbits; type: in vivo, NewZealand White Rabbits; conditions: autopsy at 12 weeks of administration in drinking water, arazyme 250 mg/kg, celecoxib 10 mg/kg/day, no statistical significance
From the text: as §1, §2, §3

[3] = tested on: Wistar-derived SPF female rats; experiment: Acute toxicity experiment of arazyme, single oral administration; type: in vivo
Description: 4 groups, each consisting of 4 Wistar-derived specific pathogen free (SPF) female rats (Orient Co., Ltd., Seoul, Korea), were bred in an animal laboratory under conditions of temperature 22° C.±3° C., humidity 55±10%, and illumination 12 L/12 D. After purchase, the rats were quarantined and adapted in the animal laboratory for 1 week. During the whole test period, 5 or less rats were accommodated in each polycarbonate cage (240 W×390 L×175 H mm). For individual identification, both skin mark using an oil marker and group distinction cards at each breeding box were used. Solid fodder for experimental animals (PMI Nutrition International, USA) was sterilized, and tap water was freely given by a water bottle.
Arazyme in the Examples was dissolved in sterilized water for injection at 0, 1250, 2500, and 5000 mg/kg, prepared at a dose of 10 ml/kg, and orally administered to the rats using zonde one. After 1 week adaptation, the rats were divided into 4 groups and arazyme was administered to 10 week-old rats at each concentration to observe general symptoms. Subsequently, an autopsy was performed after 24 hours in order to evaluate the toxicity of arazyme on actual organs.
After oral administration of arazyme into female rats, the behaviors, appearances, and functions of the animals were investigated in order to observe general symptoms exactly according to the administration of a test material and evaluate the toxicity.

[4] = tested on: joint cartilage of osteoarthritis-induced right knee; experiment: Histopathological observation of joint cartilage (H&E, toluidine blue, azan), osteoarthritis-induced rabbits; type: in vivo, NewZealand White Rabbits; conditions: autopsy at 12 weeks, optical microscope
From the text: as §1
The cranial cruciate ligaments of right knees of all the experimental animals were torn to induce the instability of joints and medial meniscuses were simultaneously removed to induce osteoarthritis. Sharm-operations were performed on the left knees to be used as a control against administration of a test material. Tear of cranial cruciate ligament and medial meniscus removal were performed as follows. The animals were fasted for 6 to 12 hours prior to the operation and only drinking water was supplied. Subsequently, an anesthetic of Xylazine (Rompun, Bayer Korea Ltd.) at 1.25 ml/6 mg/kg and Zoletil50 (Virbac) at 0.2 ml/10 mg/kg was intramuscularly injected to anesthetize the animals. […]
as §3

[5] = after single oral administration up to 5000 mg/kg

B1: arazyme: enzyme purified from Aranicola proteolyticus HY-3 (KCTC 0268BP) culture; monomer of approximately 51.5 kDa; amino acid sequence SEQ ID No: 1 (protein, listed as Aranicola proteolyticus)
chain: MQSTKKAIEITESSLAAASSAYNAVDDLLHYHERGNGIQVNGKDSFSTEQAGLFITRENQTWNGYKVFGQPVKLTFSFPDYKFSSTNVAGDTGLSKFSAEQQQQAKLSLQSWSDVANITFTEVGAGQKANITFGNYSQDRPGHYDYDTQAYAFLPNTIYQGQNLGGQTWYNVNQSNVKHPASEDYGRQTFTHEIGHALGLSHPGDYNAGEGNPTYRDASYAEDTREFSLMSYWSETNTGGDNGGHYAAAPLLDDISAIQHLYGANQTTRTGDTVYGFNSNTGRDFLSTTSNPQKVIFAAWDAGGNDTFDFSGYTANQRINLNEKSFSDVGGLKGNVSIAAGVTIENAIGGSGNDVIVGNAANNVLKGGAGNDVLFGGGGADELWGGAGKDTFVFSAVSDSAPGASDWIKDFQKGIDKIDLSFFNQGAQGGDQIHFVDHFSGAAGEALLSYNASNNVSDLALNIGGHQAPDILVKIVGQVDVATDFIV
modifications: Zn binding site (192)..(192); Zn binding site (196)..(196); Zn binding site (323)..(323)
cartilage damage of femoral joint surface, visual observation ([1]; arazyme 250 mg/kg, celecoxib 10 mg/kg/day): less cartilage damage was generally shown than in the negative control group | lesions of tibia joint surface, visual observation ([1]; positive control group compared with test material group): generally similar lesions were observed in the groups | expression of TNF-α in serum compared with negative control group [2]: at a lower level than the negative control group | microscopic findings in liver, heart, lung and pancreas ([3]; 24 hours after oral administration up to 5000 mg/kg): No pathological symptoms were observed | general symptoms (activity, walking, temperament, convulsion) [3, 5]: no abnormal symptoms | outward appearance and functions (respiration, salivation, feces, vomiting) [3, 5]: No abnormal changes were observed | estimated LD50 ([3]; single oral administration 0, 1250, 2500, 5000 mg/kg): at least 5000 mg/kg | damage of joint cartilage, hematoxylin-eosin staining [4]: most of the vertical fissures were formed into sites corresponding to the mid zones from the surface | loss of collagen, azan staining [4]: weak loss of collagen | loss of proteoglycan, toluidine blue staining [4]: proteoglycan was lost into the mid zone
